From patent US12466890

Molecular target: TL1A monomer mutant
Assay: method not stated (row 'Binds monomer mutant')

Comparator antibody 2 (MK-7240)
Kd: 0.13 nM
